In paper PMC7035113 one finds Kd and dH data, which are given here for 1 substance.

In the experiment the target is SA2-SCC1 complex (SA2 80-1060 in complex with SCC1 281-420) (UniProt Q8N3U4). The experiment is described as follows: ITC. (In general: ITC needs no label: the signal is the heat of the interaction.)
Chain of SA2-SCC1 complex (SA2 80-1060 in complex with SCC1 281-420) (Q8N3U4 80-1060, chain 1 of 2): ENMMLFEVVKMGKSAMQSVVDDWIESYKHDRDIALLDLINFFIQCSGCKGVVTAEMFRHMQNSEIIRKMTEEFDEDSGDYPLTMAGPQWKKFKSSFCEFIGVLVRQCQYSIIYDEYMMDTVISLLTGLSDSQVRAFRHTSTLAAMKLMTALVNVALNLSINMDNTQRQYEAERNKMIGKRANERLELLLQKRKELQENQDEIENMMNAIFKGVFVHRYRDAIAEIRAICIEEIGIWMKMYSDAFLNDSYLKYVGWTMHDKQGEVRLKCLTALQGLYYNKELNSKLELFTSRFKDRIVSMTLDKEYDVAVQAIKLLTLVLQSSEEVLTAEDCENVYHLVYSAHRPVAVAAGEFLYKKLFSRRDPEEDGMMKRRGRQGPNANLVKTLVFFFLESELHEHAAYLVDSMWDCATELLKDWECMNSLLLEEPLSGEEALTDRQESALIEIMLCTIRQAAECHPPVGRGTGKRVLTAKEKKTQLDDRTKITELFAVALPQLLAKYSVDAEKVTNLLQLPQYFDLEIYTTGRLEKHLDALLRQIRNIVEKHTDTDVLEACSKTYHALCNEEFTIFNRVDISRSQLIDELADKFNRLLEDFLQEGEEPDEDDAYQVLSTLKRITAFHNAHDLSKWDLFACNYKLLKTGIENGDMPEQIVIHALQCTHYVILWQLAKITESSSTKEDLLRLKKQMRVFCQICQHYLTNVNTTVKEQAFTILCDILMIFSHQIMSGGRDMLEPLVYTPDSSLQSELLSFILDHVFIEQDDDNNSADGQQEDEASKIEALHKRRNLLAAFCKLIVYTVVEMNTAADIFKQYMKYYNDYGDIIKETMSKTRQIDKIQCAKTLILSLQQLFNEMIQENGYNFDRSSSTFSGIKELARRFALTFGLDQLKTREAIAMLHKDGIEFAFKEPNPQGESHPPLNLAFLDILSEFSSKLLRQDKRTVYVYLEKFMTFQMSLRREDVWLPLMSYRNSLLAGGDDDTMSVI
Chain of SA2-SCC1 complex (SA2 80-1060 in complex with SCC1 281-420) (O60216 281-420, chain 2 of 2, further chain): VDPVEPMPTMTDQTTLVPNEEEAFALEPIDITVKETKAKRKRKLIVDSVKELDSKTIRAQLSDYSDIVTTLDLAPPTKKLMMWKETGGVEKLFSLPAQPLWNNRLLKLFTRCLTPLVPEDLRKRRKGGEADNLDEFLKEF

What is called Kd is the concentration at which binding is half-saturated. Higher therefore signals lower affinity. Take “Shugoshin (SGO1) peptide 331-341 (from UniProt Q5FBB7 331-341)”: the Kd amounted to 13.5 µM and the dH is -10.7 kcal/mol.
